T1: human MHC class II DR protein (DRA*0101/DRB1*0401), purified from PRIESS cells (human, UniProt P01903 26-254; P01911 30-266, limits assumed)
T1 construct: mature; also called HLA-DR protein; MHCII
T1 MHC II alpha: not shown
T1 MHC II beta: not shown

T2: HLA-DR (DRA*0101/DRB1*0401) on PRIESS cells (human, UniProt P01903 26-254; P01911 30-266)
T2 MHC II alpha: not shown
T2 MHC II beta: not shown


Tests used:
[1] = biological target: HLA-DR on MHH-CALL-4 cells (human); assay: cell-based or functional assay
[2] = biological target: T1, human MHC class II DR protein …; assay: ELISA, coated antigen, Fab 100 ng/well, read at 370 nm
Experimental: After washing in PBS the anti-human IgG F(ab')_2-peroxidase-conjugate at a 1:10,000 dilution in TBS (supplemented with 5% w/v non-fat drymilk/0.05% v/v Tween 20) was added to each well for 1 h. Final washes were carried out in PBS followed the addition the substrate POD (Roche).

[3] = biological target: T1, human MHC class II DR protein …; assay: SPR (BIAcore), 3 preparations on 3 chips (500, 4000, 3000 RU)
[4] = biological target: T3, chimeric 0401-IE class II molecule on cells of transgenic mice (human/murine chimera); assay: cell-based or functional assay
[5] = biological target: T1, human MHC class II DR protein …; assay: SPR (BIAcore), MHCII on CM5 chip
[6] = biological target: T1, human MHC class II DR protein …; assay: BiaCore, IgG4
Experimental: The affinities for anti-HLA antibody fragments of the invention were measured as follows. All measurements were conducted in HBS buffer (20 mM HEPES, 150 mM NaCl, pH 7.4) at a flow rate of 20 µl/min at 25° C. on a BIAcore3000 instrument (Biacore AB, Sweden). MHC class II DR protein (prepared as example 1) was diluted in 100 mM sodium acetate pH 4.5 to a concentration of […], and coupled to a CM5 chip (Biacore AB) using standard EDC-NHS coupling chemistry with subsequent ethanolamine treatment as manufacturers directions. The coating density of MHCII was adjusted to between 500 and 4000 RU. Affinities were measured by injection of 5 different concentrations of the different antibodies and using the standard software of the Biacore instrument. Regeneration of the coupled surface was achieved using 10 mM glycine pH 2.3 and 7.5 mM NaOH.

[7] = biological target: T3, chimeric 0401-IE class II molecule on …; assay: cell-based or functional assay; remark: listed apart in the source
[8] = biological target: T1, human MHC class II DR protein …; assay: SPR (BIAcore), IgG4 over MHCII on CM5 chip
[9] = biological target: T2, HLA-DR (DRA*0101/DRB1*0401) on PRIESS …; assay: cell-based or functional assay
HLA-DR on SR-786 cells = HLA-DR on SR-786 cells (human); assay: cell-based or functional assay
HLA-DR on EOL-1 cells = HLA-DR on EOL-1 cells (human); assay: cell-based or functional assay
HLA-DR on HDLM-2 cells = HLA-DR on HDLM-2 cells (human); assay: cell-based or functional assay
HLA-DR on HD-MY-Z cells = HLA-DR on HD-MY-Z cells (human); assay: cell-based or functional assay
[10] = biological target: HLA-DR on GRANTA-519 cells (human); assay: cell-based or functional assay
HLA-DR on L1236 cells = HLA-DR on L1236 cells (human); assay: cell-based or functional assay
[11] = biological target: HLA-DR on RPMI-8226 cells (human); assay: cell-based or functional assay
[12] = biological target: T2, HLA-DR (DRA*0101/DRB1*0401) on PRIESS …; assay: cell-based or functional assay
HLA-DR on NALM-1 cells = HLA-DR on NALM-1 cells (human); assay: cell-based or functional assay
HLA-DR on RAJI cells = HLA-DR on RAJI cells (human); assay: cell-based or functional assay
[13] = biological target: HLA-DR on MHH-CALL-4 cells (human); assay: cell-based or functional assay; remark: listed apart in the source
HLA-DR on BONNA-12 cells = HLA-DR on BONNA-12 cells (human); assay: cell-based or functional assay
[14] = biological target: HLA-DR on KARPAS-299 cells (human); assay: cell-based or functional assay
HLA-DR on ARH-77 cells = HLA-DR on ARH-77 cells (human); assay: cell-based or functional assay
HLA-DR on BJAB cells = HLA-DR on BJAB cells (human); assay: cell-based or functional assay
HLA-DR on DOHH-2 cells = HLA-DR on DOHH-2 cells (human); assay: cell-based or functional assay
[15] = biological target: HLA-DR on KARPAS-422 cells (human); assay: cell-based or functional assay
[16] = biological target: HLA-DR on MHH-PREB-1 cells (human); assay: cell-based or functional assay
HLA-DR on L-363 cells = HLA-DR on L-363 cells (human); assay: cell-based or functional assay
HLA-DR on HC-1 cells = HLA-DR on HC-1 cells (human); assay: cell-based or functional assay
HLA-DR on MN-60 cells = HLA-DR on MN-60 cells (human); assay: cell-based or functional assay
HLA-DR on LP-1 cells = HLA-DR on LP-1 cells (human); assay: cell-based or functional assay
HLA-DR on KM-H2 cells = HLA-DR on KM-H2 cells (human); assay: cell-based or functional assay
HLA-DR on L-428 cells = HLA-DR on L-428 cells (human); assay: cell-based or functional assay
BSA = biological target: T4, BSA (bovine, UniProt P02769 25-607); assay: ELISA, purified coated protein, OD at 370 nm minus background
T4 construct: negative control antigen; also called bovine serum albumine

[17] = biological target: T1, human MHC class II DR protein …; assay: SPR (BIAcore), scFv, chip density 500 RU MHCII

T4 sequence (P02769 25-607 limits assumed): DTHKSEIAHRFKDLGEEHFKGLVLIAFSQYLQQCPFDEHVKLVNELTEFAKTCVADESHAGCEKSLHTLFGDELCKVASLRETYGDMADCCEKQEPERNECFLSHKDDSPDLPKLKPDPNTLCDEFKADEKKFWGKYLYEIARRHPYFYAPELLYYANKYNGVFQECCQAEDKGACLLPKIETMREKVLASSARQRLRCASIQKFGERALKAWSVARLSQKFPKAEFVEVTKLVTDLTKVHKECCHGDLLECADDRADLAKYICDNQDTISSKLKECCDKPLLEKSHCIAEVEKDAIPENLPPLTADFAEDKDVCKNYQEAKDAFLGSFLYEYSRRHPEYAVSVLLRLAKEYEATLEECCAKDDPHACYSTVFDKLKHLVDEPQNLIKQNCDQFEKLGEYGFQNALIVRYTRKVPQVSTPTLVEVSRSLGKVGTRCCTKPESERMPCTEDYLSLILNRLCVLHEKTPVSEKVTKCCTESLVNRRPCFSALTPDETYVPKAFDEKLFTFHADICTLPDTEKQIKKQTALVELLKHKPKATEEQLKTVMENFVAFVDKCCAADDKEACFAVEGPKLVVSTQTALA

Binder	IC50 of inhibition of IL-2 secretion from T-Hyb 1 cells [4]	Maximum inhibition(%) of IL-2 secretion [4] [%]	Kd [6] [nM]	koff [6] [s⁻¹]	Kd [8] [nM]	koff [8] [s⁻¹]	kon [8] [M⁻¹ s⁻¹]	% Killing by mAb, 50 nM, 4 h (HLA-DR on SR-786 cells) [%]	% Killing by mAb, 50 nM, 4 h (HLA-DR on EOL-1 cells) [%]	% Killing by mAb, 50 nM, 4 h (HLA-DR on HDLM-2 cells) [%]	% Killing by mAb, 50 nM, 4 h (HLA-DR on HD-MY-Z cells) [%]	% Killing by mAb, 50 nM, 4 h [10] [%]	% Killing by mAb, 50 nM, 4 h (HLA-DR on L1236 cells) [%]	% Killing by mAb, 50 nM, 4 h [11] [%]	% Killing by mAb, 50 nM, 4 h [12] [%]	% Killing by mAb, 50 nM, 4 h (HLA-DR on NALM-1 cells) [%]	% Killing by mAb, 50 nM, 4 h (HLA-DR on RAJI cells) [%]	% Killing by mAb, 50 nM, 4 h [13] [%]	% Killing by mAb, 50 nM, 4 h (HLA-DR on BONNA-12 cells) [%]	% Killing by mAb, 50 nM, 4 h [14] [%]	other results
MS-GPC-8-6 Fab (Fab, V domains shown, Fab: VH-CH1 with FLAG tag and STREP tag II, VL-CL; VH residue 1 is Q in Fab) VH: QVQLKESGPALVKPTQTLTLTCTFSGFSLSTSGVGVGWIRQPPGKALEWLALIDWDDDKYYSTSLKTRLTISKDTSKNQVVLTMTNMDPVDTATYYCARSPRYRGAFDYWGQGTLVTVSS VL: DIVLTQPPSVSGAPGQRVTISCSGSSSNIGSNYVSWYQQLPGTAPKLLIYDNNQRPSGVPDRFSGSKSGTSASLAITGLQSEDEADYYCQSYDYDHYVFGGGTKLTVLG	20 nM (half the concentration of the Fab)	100	–	–	–	–	–	–	–	–	–	–	–	–	–	–	–	–	–	–	maximum capacity to kill MHH-Call 4 cells [1]: 76%; ELISA signal [2]: 1.31; Kd [3]: 58.6 nM; koff [3]: 0.0055 s⁻¹; kon [3]: 96000 M⁻¹ s⁻¹; Kd [5]: 58.6 nM; koff [5]: 0.00548 s⁻¹; kon [5]: 96000 M⁻¹ s⁻¹
MS-GPC-1 scFv (scFv) EVQLKESGPALVKPTQTLTLTCTFSGFSLSTSGVGVGWIRQPPGKALEWLALIDWDDDKYYSTSLKTRLTISKDTSKNQVVLTMTNMDPVDTATYYCARQYGHRGGFDHWGQGTLVTVSSAGGGSGGGGSGGGGSGGGGSDIVLTQPPSVSGAPGQRVTISCSGSSSNIGSNYVSWYQQLPGTAPKLLIYDNNQRPSGVPDRFSGSKSGTSASLAITGLQSEDEADYYCQSYDFNESVFGGGTKLTVLG	–	–	–	–	–	–	–	–	–	–	–	–	–	–	–	–	–	–	–	–	Kd [17]: 1500 nM; koff [17]: 0.061 s⁻¹; kon [17]: 41300 M⁻¹ s⁻¹

The next lines start with results.

IC50 of inhibition of IL-2 secretion from T-Hyb 1 cells [4]	Maximum inhibition(%) of IL-2 secretion [4] [%]	Kd [6] [nM]	koff [6] [s⁻¹]	Kd [8] [nM]	koff [8] [s⁻¹]	kon [8] [M⁻¹ s⁻¹]	Binder	% Killing by mAb, 50 nM, 4 h (HLA-DR on SR-786 cells) [%]	% Killing by mAb, 50 nM, 4 h (HLA-DR on EOL-1 cells) [%]	% Killing by mAb, 50 nM, 4 h (HLA-DR on HDLM-2 cells) [%]	% Killing by mAb, 50 nM, 4 h (HLA-DR on HD-MY-Z cells) [%]	% Killing by mAb, 50 nM, 4 h [10] [%]	% Killing by mAb, 50 nM, 4 h (HLA-DR on L1236 cells) [%]	% Killing by mAb, 50 nM, 4 h [11] [%]	% Killing by mAb, 50 nM, 4 h [12] [%]	% Killing by mAb, 50 nM, 4 h (HLA-DR on NALM-1 cells) [%]	% Killing by mAb, 50 nM, 4 h (HLA-DR on RAJI cells) [%]	% Killing by mAb, 50 nM, 4 h [13] [%]	% Killing by mAb, 50 nM, 4 h (HLA-DR on BONNA-12 cells) [%]	% Killing by mAb, 50 nM, 4 h [14] [%]	other results
0.31 nM	100	0.3	0.00031	0.6	4e-05	70000	MS-GPC-8-10-57 IgG4 (antibody, V domains shown, also called 1C7277; IgG form of MS-GPC-8-10-57) VH: QVQLKESGPALVKPTQTLTLTCTFSGFSLSTSGVGVGWIRQPPGKALEWLALIDWDDDKYYSTSLKTRLTISKDTSKNQVVLTMTNMDPVDTATYYCARSPRYRGAFDYWGQGTLVTVSS VL: DIVLTQPPSVSGAPGQRVTISCSGSESNIGNNYVQWYQQLPGTAPKLLIYDNNQRPSGVPDRFSGSKSGTSASLAITGLQSEDEADYYCQSYDLIRHVFGGGTKLTVLG	44	49	84	57	78	66	26	93	78	86	46	91	79	IC50 value for inhibition of T cell proliferation [7]: 11 nM; EC50 of cell killing, IgG4 [9]: 1.1 nM; % Killing by mAb, 50 nM, 4 h (HLA-DR on ARH-77 cells): 88%; % Killing by mAb, 50 nM, 4 h (HLA-DR on BJAB cells): 67%; % Killing by mAb, 50 nM, 4 h (HLA-DR on DOHH-2 cells): 60%; % Killing by mAb, 50 nM, 4 h [15]: 68%; % Killing by mAb, 50 nM, 4 h [16]: 8%; % Killing by mAb, 50 nM, 4 h (HLA-DR on L-363 cells): 24%; % Killing by mAb, 50 nM, 4 h (HLA-DR on HC-1 cells): 86%; % Killing by mAb, 50 nM, 4 h (HLA-DR on MN-60 cells): 66%; % Killing by mAb, 50 nM, 4 h (HLA-DR on LP-1 cells): 70%; % Killing by mAb, 50 nM, 4 h (HLA-DR on KM-H2 cells): 88%; % Killing by mAb, 50 nM, 4 h (HLA-DR on L-428 cells): 91%; binding result (BSA): no binding
0.42 nM	100	0.5	3.3e-05	0.5	3e-05	70000	MS-GPC-8-6-13 IgG4 (antibody, V domains shown, human IgG4 (constant region EMBL K01316) with lambda constant region (EMBL M18645), from CHO-K1 cells; also called 305D3; IgG form of MS-GPC-8-6-13) VH: QVQLKESGPALVKPTQTLTLTCTFSGFSLSTSGVGVGWIRQPPGKALEWLALIDWDDDKYYSTSLKTRLTISKDTSKNQVVLTMTNMDPVDTATYYCARSPRYRGAFDYWGQGTLVTVSS VL: DIVLTQPPSVSGAPGQRVTISCSGSESNIGANYVTWYQQLPGTAPKLLIYDNNQRPSGVPDRFSGSKSGTSASLAITGLQSEDEADYYCQSYDYDHYVFGGGTKLTVLG	26	53	90	72	73	66	19	74	65	83	43	86	76	kon [6]: 71000 M⁻¹ s⁻¹; % Killing by mAb, 50 nM, 4 h (HLA-DR on ARH-77 cells): 87%; % Killing by mAb, 50 nM, 4 h (HLA-DR on BJAB cells): 64%; % Killing by mAb, 50 nM, 4 h (HLA-DR on DOHH-2 cells): 53%; % Killing by mAb, 50 nM, 4 h [15]: 71%; % Killing by mAb, 50 nM, 4 h [16]: 11%; % Killing by mAb, 50 nM, 4 h (HLA-DR on L-363 cells): 19%; % Killing by mAb, 50 nM, 4 h (HLA-DR on HC-1 cells): 93%; % Killing by mAb, 50 nM, 4 h (HLA-DR on MN-60 cells): 67%; % Killing by mAb, 50 nM, 4 h (HLA-DR on LP-1 cells): 73%; % Killing by mAb, 50 nM, 4 h (HLA-DR on KM-H2 cells): 87%; % Killing by mAb, 50 nM, 4 h (HLA-DR on L-428 cells): 92%; binding result (BSA): no binding
